Where “and” joins values, the source holds several entries; their conditions need not be identical. Equal entries are not always repeated. Where two headings read alike, the source gives them in different places.
What was measured:
[1] = molecular target: T1, CD137 on Jurkat NFkB reporter cells (human, UniProt Q07011 24-255); experiment: cell-based or functional assay
[2] = molecular target: T1, CD137 on Jurkat NFkB reporter cells; experiment: cell-based or functional assay; remark: listed apart in the source
biotinylated human PDL1 [3] = molecular target: T2, biotinylated human PDL1 (human, UniProt Q9NZQ7 19-238, limits assumed, biotinylated); experiment: competition ELISA B7.1/PDL1
T2 construct: also called biotinylated PDL1
Outline: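 IC₅₀ was derived by four-parameter logistic fitting of reference-subtracted A450/690 readings. The signal came from streptavidin-polyHRP40 (10 ng/ml) with a 6-minute TMB reaction detecting biotinylated PDL1 bound to the plate. Pre-mixed samples sat 1 h at RT before a 1.5 h plate incubation.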

biotinylated human PDL1 [4] = molecular target: T2, biotinylated human PDL1; experiment: competition ELISA PD-1/PDL1
[5] = molecular target: human PDL1 extracellular domain (human, UniProt Q9NZQ7 19-238); experiment: SPR, IgG format captured
Description: (§1) Affinity to PDL1 of the different species was determined by SPR measurements using a Biacore T200 device (GE Healthcare). An antibody specific for the Fc region of human IgGs was immobilized on a sensor chip (CM5 sensor chip, GE Healthcare) by amine-coupling. For all formats, with the exception of the Fc containing Morrison formats, PDL1-Fc chimeric protein from different species were captured by the immobilized antibody.
(§2) The Fc containing formats were directly captured by the antibody specific for the Fc region of human IgGs. Two-fold serial dilutions of PDL1 extracellular domain or CD137 extracellular domain ranging from 90 to 0.35 nM were tested for binding to the IgG captured on the biosensor chip. After each injection cycle, surfaces were regenerated with one injection of a 3 M MgCl2 solution.

[6] = molecular target: T3, human CD137 extracellular domain (human, UniProt Q07011 24-186); experiment: SPR, IgG format captured
T3 construct: also called CD137 (PeproTech, cat. 310-15)
Description: as §1, §2

human PDL1 on cells [7] = molecular target: T4, human PDL1 on cells (human, UniProt Q9NZQ7 19-290); experiment: cell-based or functional assay
[8] = molecular target: T1, CD137 on Jurkat NFkB reporter cells; experiment: cell-based or functional assay; remark: listed apart in the source
[9] = molecular target: T1, CD137 on Jurkat NFkB reporter cells; experiment: cell-based or functional assay; remark: listed apart in the source
human PDL1 on cells [10] = molecular target: T4, human PDL1 on cells; experiment: cell-based or functional assay; remark: listed apart in the source
[11] = molecular target: T1, CD137 on Jurkat NFkB reporter cells; experiment: cell-based or functional assay; remark: listed apart in the source
[12] = molecular target: T1, CD137 on Jurkat NFkB reporter cells; experiment: cell-based or functional assay; remark: listed apart in the source

## urelumab (antibody)
[1]
  EC50, NFkB reporter, CHO-PDL1: 79.1 ng/mL
  EC50, NFkB reporter, CHO-PDL1, 6 h: 56.5 ng/mL
  EC50, NFkB reporter, CHO-PDL1, 6 h, +HSA: 77.7 ng/mL
  EC50, NFkB reporter, CHO-PDL1, 24 h: 46.6 ng/mL
  EC50, NFkB reporter, CHO-PDL1, 24 h, +HSA: 78.2 ng/mL
  EC50, NFkB reporter, HCC827 with IFNg: 114 ng/mL and 145 ng/mL and 108 ng/mL
  EC50, NFkB reporter, HCC827 with IFNg, 24 h: 52.8 ng/mL
  EC50, NFkB reporter, HCC827 without IFNg: 212 ng/mL and 110 ng/mL and 112 ng/mL
  EC50, NFkB reporter, HCC827 without IFNg, 24 h: 47.5 ng/mL
  Top of curve fit, NFkB reporter, CHO-PDL1: 102
  Top of curve fit, NFkB reporter, HCC827 with IFNg: 100
  Top of curve fit, NFkB reporter, HCC827 without IFNg: 100
[2]
  EC50, NFkB reporter, CHO-PDL1: 79.5 ng/mL and 104 ng/mL and 86.5 ng/mL
  Top of curve fit, NFkB reporter, CHO-PDL1: 100

B1: PRO1062 (bispecific antibody, human IgG1, kappa, L234A L235A)
light: DIQMTQSPSSLSASVGDRVTITCQASQSINDYLAWYQQKPGKAPKLLIYKASTLASGVPSRFSGSGSGTDFTLTISSLQPEDFATYYCQQGYIITDIDNVFGTGTKVTVLGTVAAPSVFIFPPSDEQLKSGTASVVCLLNNFYPREAKVQWKVDNALQSGNSQESVTEQDSKDSTYSLSSTLTLSKADYEKHKVYACEVTHQGLSSPVTKSFNRGEC
heavy: QVQLQESGPGLVKPSETLSLTCKVSGFSFSSGYDMCWIRQPPGKGLEWIGCVVAGSVDITYYASWAKGRVTISVDSSKNQFSLKLSSVTAADTAVYYCARKDAYSDAFNLWGQGTLVTVSSASTKGPSVFPLAPSSKSTSGGTAALGCLVKDYFPEPVTVSWNSGALTSGVHTFPAVLQSSGLYSLSSVVTVPSSSLGTQTYICNVNHKPSNTKVDKRVEPKSCDKTHTCPPCPAPEAAGGPSVFLFPPKPKDTLMISRTPEVTCVVVDVSHEDPEVKFNWYVDGVEVHNAKTKPREEQYNSTYRVVSVLTVLHQDWLNGKEYKCKVSNKALGAPIEKTISKAKGQPREPQVYTLPPSREEMTKNQVSLTCLVKGFYPSDIAVEWESNGQPENNYKTTPPVLDSDGSFFLYSKLTVDKSRWQQGNVFSCSVMHEALHNHYTQKSLSLSPGKGGGGSGGGGSIQMTQSPSSLSASVGDRVTITCQASQSINNVLAWYQQKPGKAPKLLIYRASTLASGVPSRFSGSGSGTDFTLTISSLQPEDFATYYCQSSYGNYGDFGTGTKVTVLGGGGGSGGGGSGGGGSGGGGSQVQLQESGPGLVKPSETLSLTCKVSGFSFSNSYWICWIRQPPGKGLEWIGCTFVGSSDSTYYANWAKGRVTISVDSSKNQFSLKLSSVTAADTAVYYCARHPSDAVYGYANNLWGQGTLVTVSS
notes: also called 33-03-G02 sc01 IgG1 HC with 38-27-C05 sc01 scFv; Morrison-H
Biotinylated human PDL1 [3]
  IC50: 0.0195 µg/mL
  rel. IC50 (IC50 avelumab/IC50 test): 0.51 fold
Biotinylated human PDL1 [4]
  IC50: 11.3 ng/mL
  rel. IC50 (IC50 avelumab/IC50 test): 0.32 fold
[5]
  koff: 5e-05 s⁻¹
[6]
  Kd: 1.3 nM
  koff: 0.00037 s⁻¹
  kon: 280000 M⁻¹ s⁻¹
Human PDL1 on cells [7]
  IC50 (ng/ml), NF-AT potency assay: 96.5 ng/mL
  rel. IC50 (avelumab/test): 0.68 fold
[1]
  EC50, NFkB reporter, CHO-PDL1, 6 h: 52.2 ng/mL
  EC50, NFkB reporter, CHO-PDL1, 24 h: 86.9 ng/mL
  IC50 (ng/ml), NFkB reporter, CHO-PD-L1, 24 h: 86.9 ng/mL
  max. activation (%), NFkB reporter, CHO-PD-L1, 24 h: 134%
  rel. IC50 (urelumab/test), NFkB reporter, CHO-PD-L1, 24 h: 0.54 fold

B2: PRO1060 (bispecific antibody, human IgG1, kappa, L234A L235A)
light: DIQMTQSPSSLSASVGDRVTITCQASQSINDYLAWYQQKPGKAPKLLIYKASTLASGVPSRFSGSGSGTDFTLTISSLQPEDFATYYCQQGYIITDIDNVFGTGTKVTVLGTVAAPSVFIFPPSDEQLKSGTASVVCLLNNFYPREAKVQWKVDNALQSGNSQESVTEQDSKDSTYSLSSTLTLSKADYEKHKVYACEVTHQGLSSPVTKSFNRGEC
heavy: QVQLQESGPGLVKPSETLSLTCKVSGFSFSSGYDMCWIRQPPGKGLEWIGCVVAGSVDITYYASWAKGRVTISVDSSKNQFSLKLSSVTAADTAVYYCARKDAYSDAFNLWGQGTLVTVSSASTKGPSVFPLAPSSKSTSGGTAALGCLVKDYFPEPVTVSWNSGALTSGVHTFPAVLQSSGLYSLSSVVTVPSSSLGTQTYICNVNHKPSNTKVDKRVEPKSCDKTHTCPPCPAPEAAGGPSVFLFPPKPKDTLMISRTPEVTCVVVDVSHEDPEVKFNWYVDGVEVHNAKTKPREEQYNSTYRVVSVLTVLHQDWLNGKEYKCKVSNKALGAPIEKTISKAKGQPREPQVYTLPPSREEMTKNQVSLTCLVKGFYPSDIAVEWESNGQPENNYKTTPPVLDSDGSFFLYSKLTVDKSRWQQGNVFSCSVMHEALHNHYTQKSLSLSPGKGGGGSGGGGSIQMTQSPSSLSASVGDRVTITCQASQSINNVLAWYQQKPGKAPKLLIYRASTLASGVPSRFSGSGSGTDFTLTISSLQPEDFATYYCQSSYGNYGDFGTGTKVTVLGGGGGSGGGGSGGGGSGGGGSQVQLQESGPGLVKPSETLSLTCKVSGFSFSNSYWICWIRQPPGKGLEWIGCTFVGSSDSTYYANWAKGRVTISVDSSKNQFSLKLSSVTAADTAVYYCARHPSDAVYGYANNLWGQGTLVTVSS
notes: silent hIgG1 anti-PDL1 with anti-CD137 scFv on the heavy chain; also called 33-03-G02 IgG1 HC with 38-02-A04 sc01 scFv; Morrison-H
Biotinylated human PDL1 [3]
  IC50: 0.0174 µg/mL
  rel. IC50 (IC50 avelumab/IC50 test): 0.49 fold
Biotinylated human PDL1 [4]
  IC50: 5.67 ng/mL
  rel. IC50 (IC50 avelumab/IC50 test): 0.3 fold
[8]
  EC50, NFkB reporter, CHO-PDL1, 6 h: 56.4 ng/mL
[9]
  EC50, NFkB reporter, CHO-PDL1, 24 h: 80.8 ng/mL
[5]
  koff: 4.6e-05 s⁻¹
  kon: 1.3e+06 M⁻¹ s⁻¹
[6]
  Kd: 1.3 nM
  koff: 0.00039 s⁻¹
Human PDL1 on cells [10]
  IC50 (ng/ml), NF-AT potency assay: 133 ng/mL
  rel. IC50 (avelumab/test): 0.44 fold
[11]
  EC50, NFkB reporter, HCC827 with IFNg, 24 h: 17.5 ng/mL
  EC50, NFkB reporter, HCC827 without IFNg, 24 h: 13.6 ng/mL
[12]
  IC50 (ng/ml), NFkB reporter, CHO-PD-L1, 24 h: 80.8 ng/mL
  IC50 (ng/ml), NFkB reporter, HCC827 + IFNg, 24 h: 17.5 ng/mL
  IC50 (ng/ml), NFkB reporter, HCC827 - IFNg, 24 h: 13.6 ng/mL
  rel. IC50 (urelumab/test), NFkB reporter, CHO-PD-L1, 24 h: 0.58 fold
  rel. IC50 (urelumab/test), NFkB reporter, HCC827 + IFNg, 24 h: 3.01 fold
  rel. IC50 (urelumab/test), NFkB reporter, HCC827 - IFNg, 24 h: 3.5 fold

B3: PRO1059 (bispecific antibody, human IgG1, kappa, L234A L235A)
light: DIQMTQSPSSLSASVGDRVTITCQASQSINDYLAWYQQKPGKAPKLLIYKASTLASGVPSRFSGSGSGTDFTLTISSLQPEDFATYYCQQGYIITDIDNVFGTGTKVTVLGTVAAPSVFIFPPSDEQLKSGTASVVCLLNNFYPREAKVQWKVDNALQSGNSQESVTEQDSKDSTYSLSSTLTLSKADYEKHKVYACEVTHQGLSSPVTKSFNRGECGGGGSGGGGSIQMTQSPSSLSASVGDRVTITCQASQSINNVLAWYQQKPGKAPKLLIYRASTLASGVPSRFSGSGSGTDFTLTISSLQPEDFATYYCQSSYGNYGDFGTGTKVTVLGGGGGSGGGGSGGGGSGGGGSQVQLQESGPGLVKPSETLSLTCKVSGFSFSNSYWICWIRQPPGKGLEWIGCTFVGSSDSTYYANWAKGRVTISVDSSKNQFSLKLSSVTAADTAVYYCARHPSDAVYGYANNLWGQGTLVTVSS
heavy: QVQLQESGPGLVKPSETLSLTCKVSGFSFSSGYDMCWIRQPPGKGLEWIGCVVAGSVDITYYASWAKGRVTISVDSSKNQFSLKLSSVTAADTAVYYCARKDAYSDAFNLWGQGTLVTVSSASTKGPSVFPLAPSSKSTSGGTAALGCLVKDYFPEPVTVSWNSGALTSGVHTFPAVLQSSGLYSLSSVVTVPSSSLGTQTYICNVNHKPSNTKVDKRVEPKSCDKTHTCPPCPAPEAAGGPSVFLFPPKPKDTLMISRTPEVTCVVVDVSHEDPEVKFNWYVDGVEVHNAKTKPREEQYNSTYRVVSVLTVLHQDWLNGKEYKCKVSNKALGAPIEKTISKAKGQPREPQVYTLPPSREEMTKNQVSLTCLVKGFYPSDIAVEWESNGQPENNYKTTPPVLDSDGSFFLYSKLTVDKSRWQQGNVFSCSVMHEALHNHYTQKSLSLSPGK
notes: silent hIgG1 anti-PDL1 with anti-CD137 scFv on the light chain; also called 33-03-G02 IgG1 LC with 38-02-A04 sc01 scFv; Morrison-L
Biotinylated human PDL1 [3]
  IC50: 0.029 µg/mL
  rel. IC50 (IC50 avelumab/IC50 test): 0.3 fold
Biotinylated human PDL1 [4]
  IC50: 4.54 ng/mL
  rel. IC50 (IC50 avelumab/IC50 test): 0.37 fold
[5]
  koff: 6.5e-05 s⁻¹
[6]
  Kd: 2.3 nM
  koff: 0.00042 s⁻¹
  kon: 180000 M⁻¹ s⁻¹
Human PDL1 on cells [10]
  IC50 (ng/ml), NF-AT potency assay: 93.8 ng/mL
  rel. IC50 (avelumab/test): 0.52 fold
[12]
  IC50 (ng/ml), NFkB reporter, CHO-PD-L1, 24 h: 289 ng/mL
  rel. IC50 (urelumab/test), NFkB reporter, CHO-PD-L1, 24 h: 0.09 fold
